Test results as given in patent US6849601B1 (priority 1998, dated 2005).
Positions of bridges follow the written chain, without caps; N, C: chain ends. Residues, ends and D or L forms follow the SMILES beside them.

Tests used:
[1] = system: bisected rat prostatic vas deferens
[2] = molecular target: T1, rat α1D-adrenoceptor (rat), P23944
T1 chain: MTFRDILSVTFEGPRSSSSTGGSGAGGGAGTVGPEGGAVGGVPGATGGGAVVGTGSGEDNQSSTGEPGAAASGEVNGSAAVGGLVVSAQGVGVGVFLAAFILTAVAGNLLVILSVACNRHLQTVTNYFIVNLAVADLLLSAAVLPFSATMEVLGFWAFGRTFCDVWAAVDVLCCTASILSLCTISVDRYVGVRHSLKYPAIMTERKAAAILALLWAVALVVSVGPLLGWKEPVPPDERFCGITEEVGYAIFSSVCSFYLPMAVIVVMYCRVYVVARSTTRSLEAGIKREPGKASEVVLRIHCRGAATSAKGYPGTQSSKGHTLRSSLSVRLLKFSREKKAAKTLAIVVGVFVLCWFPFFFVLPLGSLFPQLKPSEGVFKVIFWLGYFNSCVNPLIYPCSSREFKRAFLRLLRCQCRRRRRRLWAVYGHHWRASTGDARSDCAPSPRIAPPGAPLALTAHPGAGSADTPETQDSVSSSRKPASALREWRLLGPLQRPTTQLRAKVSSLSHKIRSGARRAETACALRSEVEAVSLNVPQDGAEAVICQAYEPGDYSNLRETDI

[3] = molecular target: T2, hamster α1B-adrenoceptor (hamster), P18841
T2 chain: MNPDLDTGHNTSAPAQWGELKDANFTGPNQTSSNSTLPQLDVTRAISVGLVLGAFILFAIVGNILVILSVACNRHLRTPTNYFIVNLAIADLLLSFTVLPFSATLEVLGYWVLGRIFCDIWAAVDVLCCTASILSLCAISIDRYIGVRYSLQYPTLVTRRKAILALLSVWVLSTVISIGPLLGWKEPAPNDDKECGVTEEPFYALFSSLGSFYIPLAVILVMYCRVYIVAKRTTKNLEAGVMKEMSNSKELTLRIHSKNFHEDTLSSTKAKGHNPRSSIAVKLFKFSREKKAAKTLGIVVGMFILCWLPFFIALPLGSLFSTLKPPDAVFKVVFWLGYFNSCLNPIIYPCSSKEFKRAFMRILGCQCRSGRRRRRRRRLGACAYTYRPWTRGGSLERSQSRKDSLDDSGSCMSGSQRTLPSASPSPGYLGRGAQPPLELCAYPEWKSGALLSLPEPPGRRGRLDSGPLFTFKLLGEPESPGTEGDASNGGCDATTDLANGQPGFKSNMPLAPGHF

[4] = molecular target: T3, rat α1A-adrenoceptor (rat), P43140
T3 chain: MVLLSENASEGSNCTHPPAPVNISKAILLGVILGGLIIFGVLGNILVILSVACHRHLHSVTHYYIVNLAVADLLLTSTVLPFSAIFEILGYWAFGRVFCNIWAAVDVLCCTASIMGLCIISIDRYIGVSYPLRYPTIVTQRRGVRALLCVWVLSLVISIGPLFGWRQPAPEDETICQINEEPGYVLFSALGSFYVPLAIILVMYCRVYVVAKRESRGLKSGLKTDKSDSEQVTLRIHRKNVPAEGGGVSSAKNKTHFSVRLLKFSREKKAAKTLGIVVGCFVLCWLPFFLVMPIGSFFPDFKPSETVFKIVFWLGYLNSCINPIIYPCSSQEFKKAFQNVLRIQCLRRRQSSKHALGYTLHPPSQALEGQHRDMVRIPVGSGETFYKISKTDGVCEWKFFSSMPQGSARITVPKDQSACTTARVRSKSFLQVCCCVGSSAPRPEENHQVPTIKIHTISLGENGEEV

[5] = molecular target: T2, hamster α1B-adrenoceptor (hamster), …

CC[C@H](C)[C@@H]1NC(=O)[C@H](CC(C)C)NC(=O)[C@@H]2CSSC[C@@H](C(N)=O)NC(=O)[C@H](Cc3ccccc3)NC(=O)[C@H](CCCCN)NC(=O)[C@H](CCCCN)NC(=O)[C@H](Cc3c[nH]cn3)NC(=O)[C@H](CC(N)=O)NC(=O)[C@H](CCCNC(=N)N)NC(=O)[C@H](CCCNC(=N)N)NC(=O)[C@H](CSSC[C@H](NC(=O)[C@H](CCCNC(=N)N)NC(=O)[C@H](Cc3c[nH]c4ccccc34)NC(=O)[C@H](CC(N)=O)NC(=O)[C@@H](N)Cc3ccccc3)C(=O)N2)NC(=O)[C@H](C)NC(=O)[C@@H]2CCCN2C1=O [ρ-TIA, FNWRCCLIPACRRNHKKFC] (H-FNWRCCLIPACRRNHKKFC-NH2; disulfide 5-11, 6-19)
IC50 [1]: ~300 nM

FNWRCCLIPACRRNHKKFC (modifications not checked) [ρ-TIA]
-log Ki [2]: 7.09
-log Ki [3]: 7.7
-log Ki [4]: 7.29
Ki [5]: 20 nM
